Source: US20120122765A1, “COMPOUNDS AND RELATED METHODS FOR MANIPULATING PARP-1-DEPENDENT CELL DEATH” (priority 2010, published 2012)
Substitutions are numbered along the chain they refer to. Names and notes keep the numbering of the source. Read-outs that look alike come from different tables or passages of the source.

B1: Pbm-AIF: full length mouse AIF mutant R588A;K589A;K592A (PAR binding motif mutant) (protein)
chain: MFRCGGLAGAFKQKLVPLVRTVYVQRPKQRNRLPGNLFQQWRVPLELQMARQMASSGSSGGKMDNSVLVLIVGLSTIGAGAYAYKTIKEDQKRYNERVMGLGLSPEEKQRRAIASATEGGSVPQIRAPSHVPFLLIGGGTAAFAAARSIRARDPGARVLIVSEDPELPYMRPPLSKELWFSDDPNVTKTLQFRQWNGKERSIYFQPPSFYVSAQDLPNIENGGVAVLTGKKVVHLDVRGNMVKLNDGSQITFEKCLIATGGTPRSLSAIDRAGAEVKSRTTLFRKIGDFRALEKISREVKSITVIGGGFLGSELACALGRKSQASGIEVIQLFPEKGNMGKILPQYLSNWTMEKVKREGVKVMPNAIVQSVGVSGGRLLIKLKDGRKVETDHIVTAVGLEPNVELAKTGGLEIDSDFGGFRVNAELQARSNIWVAGDAACFYDIKLGRRRVEHHDHAVVSGRLAGENMTGAAKPYWHQSMFWSDLGPDVGYEAIGLVDSSLPTVGVFAKATAQDNPKSATEQSGTGIRSESETESEASEITIPPSAPAVPQVPVEGEDYGKGVIFYLRDKVVVGIVLWNVFNRMPIAAAIIADGEQHEDLNEVAKLFNIHED
B2: WT-AIF: full length wild type mouse AIF (apoptosis-inducing factor), recombinant (protein)
chain: B1 chain with A588R, A589K, A592K

Tests used:
Hq cortical neurons = experiment: NMDA excitotoxicity in Hq cortical neurons; assay type: cell-based, mouse; details: DPQ (30 μM) or zVAD (100 μM) in addition to NMDA
Method: HQ cortical neuron cells were transduced with lentivirus carrying WT-AIF-Flag or Pbm-AIF-Flag. Non-transduced neurons and GFP-lentivirus infected cells were used as negative controls. […] In those photos, blue indicates Hoechst 33342 staining and red indicates propidium iodide staining. […] The cytotoxicity in these Hq cortical neurons was measured at 24 hours, 36 hours, and 48 hours after NMDA (500 μM for 5 min) treatment, and the data for this is reported in the graph of FIG. 18B.

HeLa cells = experiment: AIF nuclear translocation in HeLa cells after MNNG; assay type: cell-based; details: MNNG 50 μM for 15 minutes
Method: (§1) Unless otherwise set forth herein, immunocytochemistry, immunohistochemistry and confocal microscopy as referenced in the examples entailed the following materials and procedures. For immunocytochemistry, cells were fixed 2 hours after treatment with 4% paraformaldehyde, permeabilized with 0.05% Triton X-100, and blocked with 3% bovine serum albumin in PBS. AIF was visualized by 2 μg/ml mouse anti-Flag/Cyt AffiniPure Donkey Anti-Mouse IgG or rabbit anti-AIF/Cy3 AffiniPure Donkey Anti-Rabbit IgG. Immunohistochemistry was performed using the antibody against Flag. Immunofluorescence analysis thereafter was carried out by using a LSM510 confocal laser scanning microscope (obtained from Carl Zeiss Microlmaging) as described by H. Wang et al. (J. Neurosci, 2004).

PAR [1] = experiment: biotin-labeled PAR pull-down assay; assay type: binding; details: biotin-labeled PAR-conjugated NeutrAvidin beads
Text: To confirm that Pbm-AIF fails to bind PAR, Applicants also performed four trials of biotin-labeled PAR pull-down assays on WT-AIF, Pbm-AIF, and histone H3. For this experiment, the pull-down assay used biotin-labeled PAR-conjugated NeutrAvidin beads. FIG. 10A comprises a composite black and white photograph depicting typical gels obtained in this pull-down assay.

isolated HeLa nuclei = experiment: nuclear shrinkage assay; assay type: biochemical; details: non-tagged proteins incubated with isolated HeLa nuclei
Method: Nuclei were obtained by purification from HeLa cells as described previously by A. Mandir et al. (J Neurosci, 2000). For the assay, purified nuclei were incubated with recombinant WT-AIF or Pbm-AIF (20 ng/ml) in the presence of ATP (2 mM), phosphocreatine (20 mM) and creatine kinase (50 μg/ml) for 90 minutes at 37° C. Nuclei were stained by DAPI and examined by fluorescence microscopy.
FIG. 11D comprises an array of color photographs showing the result of fluorescence microscopy for various cultures, as labeled in the figure, following DAPI staining. […] FIG. 11E is a chart reporting the result of a quantification of nuclei treated by WT-AIF, Pbm-AIF, and control (“CTL”), using Caspase 3 as a positive control.

PAR [2] = experiment: in vitro PAR-binding assay, twenty percent TBE-PAGE analysis
Method: To begin, 300 nM of purified WT-AIF or Pbm-AIF (i.e., AIF mutated in its PAR binding region) were incubated with ^32P-labeled PAR for 10 minutes at room temperature. Thereafter, samples were incubated with AIF antibody-linked protein G slurry for 1 hour. Samples were washed two times with PBS and boiled with 1× Laemmli sample buffer (obtained from BIO-RAD). Each soluble fraction was resolved in 20% TBE-PAGE. The gel was heat dried and developed using the Typhoon 9400 Imager.
(§2) To further ascertain whether full length recombinant AIF-Tm produced above (henceforth named “Pbm-AIF”) binds PAR, Applicants performed three iterations of an EMSA assay for PAR binding with recombinant WT-AIF and Pbm-AIF, using histone H3 as a control. […] FIG. 9 comprises a black and white photograph of EMSA gels showing representative results for WT-AIF and Pbm-AIF using ^32P-labeled PAR.

isolated mitochondria = experiment: AIF binding to isolated mitochondria; details: for binding to mitochondria versus concentration: 0.1 ng/μl to 120.5 ng/μl, 30 minutes, room temperature; for binding percentage to mitochondria over time: 2.5 ng/μl, mitochondria 200 μg/ml, after 5 minutes; for depletion from the supernatant by mitochondria: untreated mitochondria, absence of PAR
Method: One commonly accepted estimate is that approximately 20%-30% of AIF resides on the cytosolic side of the outer membrane of mitochondria, where it is poised to be rapidly released by PAR following PARP-1 activation. Applicants thus wanted to perform tests of AIF binding to mitochondria determine how readily purified WT-AIF and Pbm-AIF bind to mitochondria in a time- and concentration-dependent manner. Specifically, recombinant WT-AIF (2.5 ng/μl) and Pbm-AIF (2.5 ng/μl) were incubated with isolated mitochondria (200 μg/ml) for 1 minute, 5 minutes, 10 minutes, 15 minutes, 20 minutes or 30 minutes. […] The results of this portion of the experiment is provided by the graph of FIG. 15B.
To investigate the mechanism underlying mitochondrial AIF release following PARP-1 activation, Applicants incubated isolated mitochondria with purified non-tagged forms of AIF in the presence or absence of PAR and followed this by centrifugation to remove the mitochondria. Detection of AIF remaining in the supernatant was thereafter performed through immunoblot analysis.
The supernatant collected in the experiments of Example 16 were also analyzed for the presence of Tom20 and cyclochrome c.

PAR [3] = experiment: EMSA with 32P-labeled PAR; assay type: binding
Method: (§3) The following experiment was performed to confirm whether AIF in fact binds to PAR. Applicants performed 3 trials of an overlay assay on recombinant AIF with affinity-purified biotin-labeled PAR. Histone H3, which binds to PAR with high affinity, was included as a positive control and bovine serum albumin (“BSA”) was included as a negative control, as described by P. Chang et al. (Nat Cell Bio, 2005). FIG. 1B depicts three photos side by side for gels representative of all trials for these overlay assays. […] Thus, Applicants took the results of these two tests as confirming that AIF binds to PAR in vitro.
as §2

[4] = system: Hq mouse cortical neuronal cultures; experiment: AIF translocation to the nucleus in Hq cortical neurons; assay type: cell-based; details: 100 nM staurosporine, 24 hours
Method: as §1, with “For immunocytochemistry, cells were fixed 2 hours after treatment with 4% paraformaldehyde, permeabilized with 0.05% Triton X-100, and blocked with 3% bovine serum albumin in PBS.” left out
Again, AIF translocation to the nucleus was monitored two hours after NMDA (500 μM, 5 minutes) treatment sufficient to initiate parthanatos in wild-type cells.

PAR [5] = experiment: PAR overlay assay of full length AIF and mutants; assay type: binding
Method: as §3
To further study these potential AIF PBMs, Applicants performed the following experiment to examine the effect of mutating AIFm amino acids 222-244, 441-463, and/or 567-592 to poly-alanine on the ability of AIF to bind PAR. FIG. 6 comprises black and white photographs of representative gels from an overlay assay of His-tagged WT-AIF, AIFm222-244, AIFm441-463, AIFm567-592, AIFΔ567-592 (i.e., a mutant lacking AAs 567-592), and AIF(K254A, R264A) (i.e., mutating K to A at 254 and R to A at 264) mutants with ^32P-labeled automodified PARP-1 (equivalent to 100 nM of PAR), purified ^32P-labeled PAR (100 nM), or purified ^32P-labeled PAR with either a 100-fold excess of DNA or cold PAR. […] The same can be assumed to corresponding sequences for other species, such as those identified in FIG. 4.
Additionally, to exclude the possibility that PAR polymer is binding to AIF through its DNA-binding domain, PAR polymer binding was assessed against the full length AIF DNA-binding mutant AIFK254A;R264A as described by H Cande et al. (Nat Struct Biol, 2002).
Finally, Human AIF (“AIFH”) is known to bind to DNA through a groove between the FAD-binding domain (“D1”) and C-terminal domain (“D3”). A mutant form of AIFH in which lysine 255 is substituted with alanine and arginine 265 is substituted with alanine (AIFK255A;R265A) completely lacks DNA binding. To investigate the possible contribution of the AIF DNA-binding domain to PAR binding, Applicants assessed PAR binding to AIFm mutated in the same way (AIFK254A;R264A). […] Thus, Applicants concluded that the AIF PAR-binding site is separable from its DNA-binding site, meaning that such binding could be inhibited by genetically modifying AIF without impacting the natural DNA binding capabilities of AIF or potentially by otherwise inhibiting the binding action of the PBMs.

Molecule	effect on NMDA-induced cortical neuron death (Hq cortical neurons)	effect on nuclear translocation of AIF after MNNG (HeLa cells)	pull-down with biotin-labeled PAR (PAR [1])	chromatin condensation and nuclear shrinkage (isolated HeLa nuclei)	binding to 32P-PAR (PAR [2])	binding to mitochondria versus concentration (isolated mitochondria)	binding percentage to mitochondria over time (isolated mitochondria)	effect of PAR on association with mitochondria (isolated mitochondria; 5 nM PAR)	effect of PAR on association with mitochondria (isolated mitochondria; 50 nM PAR)	effect of PAR on association with mitochondria (isolated mitochondria; 100 nM PAR)	depletion from the supernatant by mitochondria (isolated mitochondria)	PAR mobility shift (PAR [3])	translocation to the nucleus after staurosporine [4]	PAR binding (PAR [5]; His-tagged proteins, purified PAR, normalized to WT-AIF, result in words)	reduced PAR binding (PAR [5]; radioactive signal normalized to WT-AIF) [%]	PAR mobility shift (PAR [3]; listed as AIFm)	effect of hundred fold excess of salmon sperm DNA on PAR binding (PAR [5]; overlay assay, 32P-labeled PAR)	binding to biotin-labeled PAR (PAR [5]; overlay assay, affinity-purified biotin-labeled PAR)	effect of salmon sperm DNA on PAR binding (PAR [5]; salmon sperm DNA at 760 μM)
O=C1NCCc2c(OCCCCN3CCCCC3)cccc21 [DPQ, 3,4-Dihydro-5[4-(1-piperindinyl)butoxy]-1(2H)-isoquinoline, reference compound]	inhibited NMDA-induced cortical neuron death	prevented the nuclear translocation of both endogenous AIF and WT-AIF-Flag																	
B1			only a barely detectable amount	comparable levels of chromatin condensation and nuclear shrinkage	failed to bind to ^32P-PAR	bound to the mitochondria in a concentration dependent manner	equivalent	failed to affect association	barely detectable effects	partially reduced mitochondrial binding	effectively depleted	no effect on PAR mobility	translocated to the nucleus	nearly abolished PAR-binding	90				
B2			pulled down with biotin-labeled PAR	comparable levels of chromatin condensation and nuclear shrinkage	bound to ^32P-PAR of different lengths	bound to the mitochondria in a concentration dependent manner	equivalent	failed to affect association	increased the concentration of WT-AIF in the supernatant	almost completely abolished	effectively depleted	caused a PAR mobility shift in a concentration-dependent manner				cause a shift of PAR polymer	fails to disrupt	bound to biotin-labeled PAR in a concentration-dependent manner	failed to disrupt PAR binding
